In patent US20190309069A1 (SHANGHAI HENGRUI PHARMACEUTICAL, published 2019) one finds Kd, EC50 and IC50 data, which are given here for four molecules.

B1: humanized antibody H005-1 (antibody, human IgG4 S228P, kappa, F234A L235A, V domains shown)
VH: EVQLVESGGGLVQPGGSLRLSCAASGFTFSSYMMSWVRQAPGKGLEWVATISGGGANTYYPDSVKGRFTISRDNAKNSLYLQMNSLRAEDTAVYYCARQLYYFDYWGQGTTVTVSS
VL: DIQMTQSPSSLSASVGDRVTITCLASQTIGTWLTWYQQKPGKAPKLLIYTATSLADGVPSRFSGSGSGTDFTLTISSLQPEDFATYYCQQVYSIPWTFGGGTKVEIKR
notes: CDR graft of mAb005 on IgHV3-7/JH6 and IGKV1-39/JK4, IgG4 constant region; expressed in HEK293 cells; also called PD-1 antibody H005-1
B2: humanized antibody H005-2 (antibody, human IgG4 S228P, kappa, F234A L235A, name in Kabat numbering, V domains shown)
VH: B1 VH with G44R
VL: B1 VL
notes: Back-mutated variant of H005-1, IgG4 constant region
B3: humanized antibody H005-3 (antibody, human IgG4 S228P, kappa, F234A L235A, name in Kabat numbering, V domains shown)
VH: B1 VH
VL: B1 VL with A43S
notes: as for B2
B4: humanized antibody H005-4 (antibody, human IgG4 S228P, kappa, F234A L235A, name in Kabat numbering, V domains shown)
VH: B1 VH with G44R
VL: B1 VL with A43S
notes: as for B2

Positions count from the first letter of the chain named.

For orientation: Kd means the constant that tells how readily two partners part at equilibrium. Higher therefore signals weaker binding. A word on the EC50: it is the concentration at which the effect is half-maximal. As usually defined, the IC50 is the concentration that inhibits the measured activity by half.

The first test concerns the target T1, PD-1 His protein (Beijing Sino Biological Inc.) (UniProt Q15116 25-167, limits assumed).
T1 construct: Bought reagent, analyte in the Biacore assay; not shown: His tag
Put plainly: Biacore SPR as in Example 5, PD-1 His as analyte. On the procedure:
According to the instruction of a kit provided by Biacore, the test PD-1 antibody of the present invention was covalently linked to CM5 (GE) chip using a standard amino coupling method. Then a series of gradient concentrations of PD-1 His protein (Beijing Sino Biological Inc.), which were diluted in the same buffer, were loaded into each cycle successively. After that, the samples were regenerated with regenerated reagent in the kit. The antigen-antibody binding kinetics was tracked for 3 minutes and the dissociation kinetics was tracked for 10 minutes. The data obtained was analyzed by GE's BIAevaluation software using 1:1 (Langmuir) binding model.
(§1) Humanized antibodies were subjected to ELISA binding assay (method is the same as that of Example 2), ligand binding blocking assay (method is the same as that of Example 2), and affinity kinetics experiment (method is the same as that of Example 5) in vitro.
Turning to B1, the equilibrium dissociation constant (Kd) worked out at 2.79 nM.
Molecule B2 gave a Kd of 2.98 nM.
Regarding B3, binding was put at a Kd of 2.45 nM.
Still for that read-out and setting: under B4 stands 3.89 nM.

Another test has as its target T2, recombinant PD-1 extracellular domain Fc fusion protein (PD-1 Fc) (human, biotin label (sites not given) in the ELISA binding assay; unlabelled when coated in the ligand blocking assay).
T2 construct: also called human PD-1Fc; human PD-1
Put plainly: ELISA as in Example 2, biotinylated PD-1 Fc captured on avidin. Here is the method:
The PD-1 antibody blocks signaling pathway of PD-1 and its ligand by binding to PD-1 extracellular domain. In vitro ELISA assay is used to detect the binding property of the PD-1 antibody. Biotinylated PD-1 extracellular domain FC fusion protein (PD-1 FC) is coated onto 96-well plates by binding to neutralization avidin. Signal intensity after the addition of the antibody is used to determine the binding property of the antibody and PD-1.
Neutralization avidin (binding to biotin) was diluted to 1 μl/ml with PBS buffer, pipetted into a 96-well plate with at 100 μl/well and standed for 16 h-20 h at 4° C. The 96-well plate was washed once with PBST (PH7.4 PBS, containing 0.05% tweeen20) after PBS buffer was removed, then the plate was incubated and blocked for 1 h at room temperature with addition of 120 μl/well PBST/1% milk. After removal of the blocking solution, the plate was washed with PBST buffer, followed by addition of 1 μg/ml biotin-labeled PD1-FC which was diluted by PBST/1% milk, and incubated for 1 h at room temperature. After removal of the blocking solution, the plate was washed with PBST buffer for 3 times, followed by addition of the test PD-1 antibody which was diluted to a suitable concentration by PBST/1% milk, and incubated for 1.5 h at room temperature. After removal of reaction system, the plate was washed for 3 times with PBST buffer, followed by addition of 100 μl/well HRP-labeled anti-murine secondary antibody (The Jackson Laboratory) which was diluted by PBST/1% milk, and incubated for 1 h at room temperature. After being washed with PBST for three times, the plate was added with 100 μl/well TMB, and incubated for 5-10 min at room temperature. Then the reaction was terminated with addition of 100μ/well 1M H₂SO₄. The absorbance value at 450 nm was read on NOVOStar microplate reader; the ELISA binding EC₅₀ value was calculated.
as §1
Background: In an ELISA, binding on a coated surface is turned into a signal by an enzyme label.
Consider B1, for which the EC50 was determined as 0.11 nM.
For the molecule B2, the EC50 worked out at 0.14 nM.
Turning to B3, the EC50 amounted to 0.15 nM.
Still for that read-out and setting: with B4 the figure was 0.14 nM.

The next test deals with T2, recombinant PD-1 extracellular domain …. Put plainly: ligand binding blocking ELISA as in Example 2, competitor biotin-labeled PD-L1. Here is the method:
In this experiment, a 96-well plate was coated with a PD-1 protein with the extracellular domain fused with FC (PD-1-FC), and incubated with the test PD-1 antibody; later biotin-labeled PD-L1 was added for incubation. After washing the plate, the binding amount of biotin-labeled PD-L1 was detected; the blocking IC₅₀ value of PD-1 antibody for ligand PD-L1 binding was calculated.
PD-1-FC was diluted to 1 μg/ml with PH 9.6 CB buffer (1.59 g Na₂CO₃ and 2.93 g NaHCO₃ were dissolved in 1 L of distilled water), pipetted into a 96-well plate at 100 μl/well and standed for 16 h-20 h at 4° C. The 96-well plate was washed once with PBST (PH7.4 PBS, containing 0.05% tweeen20) after PBS buffer was removed, then the plate was incubated and blocked for 1 h at room temperature with 120 μl/well PBST/1% milk. After removal of the blocking solution, the plate was washed with PBST buffer once, followed by addition of 90 μl of test PD-1 antibody which was diluted to a suitable concentration with sample diluents (PH7.4 PBS containing 5% BSA, 0.05% Tween20), and incubated for 1 h at 4° C. Then 10× concentrations of biotin-labeled PD-L1 (Beijing Sino Biological Inc.) (10 μg/ml) was added to the plate at 10 μl/well, oscillated and mixed by an oscillator, and incubated at 37° C. for 1 h. After removal of the reaction system, the plate was washed for 6 times with PBST buffer, followed by addition of 100 ul/well Streptavidin-Peroxidase Polymer which was diluted by PBST at a ratio of 1:400, and incubated under oscillation for 50 min at room temperature. After being washed with PBST for 6 times, the plate was added with 100 μl/well TMB, and incubated for 5-10 min at room temperature. Then the reaction was terminated with addition of 100 μl/well 1M H₂SO₄. The absorbance value at 450 nm was read on the NOVOStar microplate reader; the blocking IC₅₀ value of PD-1 for ligand PD-L1 binding was calculated.
as §1
Take B1: the IC50 worked out at 1.27 nM.
Still for that read-out and setting: under B2 stands 1.27 nM; under B3, 1.33 nM.
As to B4, the IC50 was 1.36 nM.
